Data reported in publication PMC6614797.

Assays:
[1] = molecular target: NusA-AR2^D443C labeled with fluorescein-5-maleimide (E. coli) (UniProt P0AFF6); experiment: fluorescence polarisation
RNA polymerase (E. coli) = RNA polymerase (E. coli) (UniProt P0A7Z4); experiment: SEC

Kd [1]	percent of SuhB coeluted with the rrnG-TAC (RNA polymerase (E. coli))	percent of S4 coeluted with the rrnG-TAC (RNA polymerase (E. coli))	Substance
83 µM	20%		inositol monophosphatase SuhB (from UniProt P0ADG4 1-267) (natural protein)
		25%	ribosomal protein S4 (from UniProt P0A7V8 1-206) (natural protein)
